From patent publication US20130177579A1 (BIOALLIANCE C V, published 2013)
Each block holds one binder with its values, some of them ahead of it.

Legend:
[1] = target: human transferrin receptor expressed by nonhematopoietic cancer cells (human) (UniProt P02786); assay: FACS, KLE cells, 1X
[2] = target: human transferrin receptor expressed by nonhematopoietic cancer cells (human) (UniProt P02786); assay: FACS, A549 cells, 1X
[3] = target: human transferrin receptor expressed by nonhematopoietic cancer cells (human) (UniProt P02786); assay: FACS, DLD-1 cells, 1X
[4] = target: human transferrin receptor expressed by nonhematopoietic cancer cells (human) (UniProt P02786); assay: FACS, DU145 cells, 1X
[5] = target: human transferrin receptor expressed by nonhematopoietic cancer cells (human) (UniProt P02786); assay: FACS, KLE cells, 1/5X
[6] = target: human transferrin receptor expressed by nonhematopoietic cancer cells (human) (UniProt P02786); assay: FACS, A549 cells, 1/5X
[7] = target: human transferrin receptor expressed by nonhematopoietic cancer cells (human) (UniProt P02786); assay: FACS, Panc-1 cells, 1X
[8] = target: human transferrin receptor expressed by nonhematopoietic cancer cells (human) (UniProt P02786); assay: FACS, DU145 cells, 1/5X
[9] = target: human transferrin receptor expressed by nonhematopoietic cancer cells (human) (UniProt P02786); assay: FACS, HEC-1-A cells, 1X
[10] = target: human transferrin receptor expressed by nonhematopoietic cancer cells (human) (UniProt P02786); assay: FACS, SK-OV-3 cells, 1X
[11] = target: human transferrin receptor expressed by nonhematopoietic cancer cells (human) (UniProt P02786); assay: FACS, Kato III cells, 1X
[12] = target: human transferrin receptor expressed by nonhematopoietic cancer cells (human) (UniProt P02786); assay: FACS, Panc-1 cells, 1/5X
[13] = target: human transferrin receptor expressed by nonhematopoietic cancer cells (human) (UniProt P02786); assay: FACS, MDA-MB-453 cells, 1X
[14] = target: human transferrin receptor expressed by nonhematopoietic cancer cells (human) (UniProt P02786); assay: FACS, Panc02.03B cells, 1X
[15] = target: human transferrin receptor expressed by nonhematopoietic cancer cells (human) (UniProt P02786); assay: FACS, H727 cells, 1x
[16] = target: human transferrin receptor expressed by nonhematopoietic cancer cells (human) (UniProt P02786); assay: FACS, WiDr cells, 1x
[17] = target: human transferrin receptor expressed by nonhematopoietic cancer cells (human) (UniProt P02786); assay: FACS, DLD-1 cells, 1x
[18] = target: human transferrin receptor expressed by nonhematopoietic cancer cells (human) (UniProt P02786); assay: FACS, DU145 cells, 1x
[19] = target: human transferrin receptor expressed by nonhematopoietic cancer cells (human) (UniProt P02786); assay: FACS, OMC-3 cells, 1x
[20] = target: human transferrin receptor expressed by nonhematopoietic cancer cells (human) (UniProt P02786); assay: FACS, H727 cells, 1/5X
[21] = target: human transferrin receptor expressed by nonhematopoietic cancer cells (human) (UniProt P02786); assay: FACS, SNU-16 cells, 1x
[22] = target: human transferrin receptor expressed by nonhematopoietic cancer cells (human) (UniProt P02786); assay: FACS, COLO205 cells, 1x
[23] = target: human transferrin receptor expressed by nonhematopoietic cancer cells (human) (UniProt P02786); assay: FACS, HEC-1-A cells, 1x
[24] = target: human transferrin receptor expressed by nonhematopoietic cancer cells (human) (UniProt P02786); assay: FACS, NCI-N87 cells, 1x
[25] = target: human transferrin receptor expressed by nonhematopoietic cancer cells (human) (UniProt P02786); assay: FACS, SK-OV-3 cells, 1x
[26] = target: human transferrin receptor expressed by nonhematopoietic cancer cells (human) (UniProt P02786); assay: FACS, Kato III cells, 1x
[27] = target: human transferrin receptor expressed by nonhematopoietic cancer cells (human) (UniProt P02786); assay: FACS, SNU-16 cells, 1/5X
[28] = target: human transferrin receptor expressed by nonhematopoietic cancer cells (human) (UniProt P02786); assay: FACS, SU.86.86 cells, 1x
[29] = target: human transferrin receptor expressed by nonhematopoietic cancer cells (human) (UniProt P02786); assay: FACS, MDA-MB-453 cells, 1x
[30] = target: human transferrin receptor expressed by nonhematopoietic cancer cells (human) (UniProt P02786); assay: FACS, Panc02.03B cells, 1x
[31] = target: human transferrin receptor expressed by nonhematopoietic cancer cells (human) (UniProt P02786); assay: FACS, WiDr cells, 1X
[32] = target: human transferrin receptor expressed by nonhematopoietic cancer cells (human) (UniProt P02786); assay: FACS, SNU-16 cells, 1X
[33] = target: human transferrin receptor expressed by nonhematopoietic cancer cells (human) (UniProt P02786); assay: FACS, COLO205 cells, 1X
[34] = target: human transferrin receptor expressed by nonhematopoietic cancer cells (human) (UniProt P02786); assay: FACS, NCI-N87 cells, 1X

Chain of human transferrin receptor expressed by nonhematopoietic cancer cells (human) (P02786 whole entry G142S): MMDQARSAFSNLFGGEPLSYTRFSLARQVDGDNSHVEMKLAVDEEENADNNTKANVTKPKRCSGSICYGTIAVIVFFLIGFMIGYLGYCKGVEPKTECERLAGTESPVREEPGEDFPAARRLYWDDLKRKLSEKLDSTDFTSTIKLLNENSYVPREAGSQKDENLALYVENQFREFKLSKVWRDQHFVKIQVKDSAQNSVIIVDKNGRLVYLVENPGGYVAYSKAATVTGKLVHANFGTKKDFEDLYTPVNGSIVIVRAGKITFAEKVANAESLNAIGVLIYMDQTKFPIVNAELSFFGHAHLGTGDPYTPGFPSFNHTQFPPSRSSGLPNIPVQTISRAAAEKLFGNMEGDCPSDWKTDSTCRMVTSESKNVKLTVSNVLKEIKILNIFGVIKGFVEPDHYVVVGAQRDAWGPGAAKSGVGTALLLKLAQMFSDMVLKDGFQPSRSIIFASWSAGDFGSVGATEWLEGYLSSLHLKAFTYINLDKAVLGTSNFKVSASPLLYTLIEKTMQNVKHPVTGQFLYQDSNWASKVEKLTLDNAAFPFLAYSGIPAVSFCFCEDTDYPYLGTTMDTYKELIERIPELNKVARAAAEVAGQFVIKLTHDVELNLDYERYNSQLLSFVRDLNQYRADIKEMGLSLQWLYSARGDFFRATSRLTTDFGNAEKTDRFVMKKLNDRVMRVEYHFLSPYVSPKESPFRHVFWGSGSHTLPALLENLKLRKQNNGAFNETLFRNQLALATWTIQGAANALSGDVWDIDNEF

MFI [1]: 136 MFI
MFI [2]: 897 MFI
MFI [3]: 219 MFI
MFI [4]: 2280 MFI
MFI [5]: 87 MFI
MFI [6]: 711 MFI
MFI [7]: 773 MFI
MFI [8]: 2280 MFI
MFI [9]: 1490 MFI
MFI [10]: 2370 MFI
MFI [11]: 140 MFI
MFI [12]: 503 MFI
MFI [13]: 81 MFI
MFI [14]: 574 MFI
B1: antibody 55-31 (antibody, mouse IgM, V domains shown)
VH: QVQLQQPGAELVKPGTSVKLSCKASGYNFTSYWINWVKLRPGQGLEWIGDIYPGSGSTNYNEKFKSKATLTVDTSSSTAYMQLSSLASEDSALYYCARSAYRYDWFAYWGQGTLVTVSA
VL: DIQMTQSPASLSVSVGETVTITCRASENIYSNLAWYQQKQGKSPQLLVYAATNLADGVPSRFSGSGSGTQYSLKINSLQSEDFGSYYCQHFWGTPYTFGGGTKLEIKR
notes: Mouse IgM, kappa from a hybridoma; tested as hybridoma culture supernatant

MFI [15]: 623 MFI
MFI [16]: 2480 MFI
MFI [17]: 2500 MFI
MFI [18]: 51 MFI
MFI [19]: 3460 MFI
MFI [20]: 319 MFI
MFI [21]: 4150 MFI
MFI [22]: 6660 MFI
MFI [8]: 13 MFI
MFI [23]: 72 MFI
MFI [24]: 3940 MFI
MFI [25]: 467 MFI
MFI [26]: 613 MFI
MFI [27]: 5100 MFI
MFI [28]: 5070 MFI
MFI [29]: 53 MFI
MFI [30]: 4690 MFI
B2: antibody 122-72 (antibody, V domains shown)
VH: EVQLVESGGGLVQPKGSLKLSCAASGFTFNTYAMNWVRQAPGKGLEWVARIRSKSNNYATYYADSVKDRFTISRDDSQSMLYLQMNNLKTEDTAMYYCVAYGSRNYWGQGTTLTVSS
VL: DIVMTQSPSSLTVTAGEKVTMSCKSSQSLLNSGNQKNYLTWYQQKPGQPPKLLIYWASTRESGVPDRFTGSGSGTDFTLTISSVQAEDLAVYYCQNDYSYPYTFGGGTKLEIKR
notes: Mouse IgM, kappa from a hybridoma; tested as hybridoma culture supernatant; Antibody 60-43 is said to have the same CDRs

MFI [1]: 890 MFI
MFI [31]: 1420 MFI
MFI [3]: 3760 MFI
MFI [5]: 556 MFI
MFI [32]: 4750 MFI
MFI [33]: 7090 MFI
MFI [9]: 57 MFI
MFI [34]: 5810 MFI
MFI [11]: 1410 MFI
MFI [27]: 3970 MFI
MFI [13]: 147 MFI
MFI [14]: 5910 MFI
B3: antibody 6-90 (antibody, mouse IgM, V domains shown)
VH: EVELQQFGIEMVKPGASVKISCKASGYIFTDYHMDWVRQSHGKSLEWIGDIDPKYDRVTYNQKFKGKASLTADKSSSTAYMELRSLTSEDTAVYYCAKTGAYGDYLAYWGQGTLVTVSA
VL: DLVMTQTPLSLPVSLGDQASISCRSSQSLVHSDGNTYFYWYLQKPGQSPKLLIYKVSNRFSGVPDRFSAGGSGTYFTLKISRVEAEDLGVYFCSQTTHFPPTFGGGTKLEIKR
notes: as for B1
